# From PMC11757143, “Generation and characterization of OX40-ligand fusion protein that agonizes OX40 on T-Lymphocytes” (Frontiers in Immunology, 2024)
# Where “and” joins values, the source holds several entries; their conditions need not be identical. Equal values may be shown once.
# B1: MBL-OX40L (ligand)
# chain: not shown
# notes: extracellular TNF homology domain (THD) of mouse OX40L (Tnfsf4), 51Ser-198Leu; Seen as dimer, trimer and hexamer on non-reducing gels; also called OX40L-fusion protein (A)
# B2: Fc-MBL-OX40L (Fc fusion)
# chain: not shown
# notes: extracellular TNF homology domain (THD) of mouse OX40L (Tnfsf4), 51Ser-198Leu; Order N to C: Fc, PA, MBL, OX40L; Seen as dimer, hexamer and higher-order multimers on non-reducing gels; also called OX40L-fusion protein (B); not shown: Fc (human IgG1: hinge, CH2, CH3), N-terminal, kept
# B3: MBL-scOX40L (ligand)
# chain: not shown
# notes: extracellular TNF homology domain (THD) of mouse OX40L (Tnfsf4), 51Ser-198Leu; first of three copies; peptide linker; second of three copies; third of three copies; Order N to C: PA, MBL, OX40L, Linker, OX40L, Linker, OX40L, His6; Seen as dimer, trimer and multimers on non-reducing gels; also called OX40L-fusion protein (E); source: Anti PA tag Antibody Beads; not shown: His6, C-terminal, kept
# Target: the molecule itself
# Assay: non-reducing SDS-PAGE and immunoblot; recombinant OX40L proteins in Laemmli sample buffer, non-heated/non-reducing, SDS-PAGE, immunoblot with anti-PA tag antibody; oligomers judged by molecular weight
row,Protein,stoichiometry N
1,B1,2 and 3 and 6
2,B2,2 and 6
3,B3,2 and 3
